Laboratory results reported in US20190194322A1 (published 2019).
Where two headings read alike, the source gives them in different places. Each block holds one binder with its values, some of them ahead of it.

How the values were obtained:
[1] = target: T1, Recombinant human VSIG3 Fc Chimera; experiment: SPR (Biacore, single-cycle kinetics)
T1 chain: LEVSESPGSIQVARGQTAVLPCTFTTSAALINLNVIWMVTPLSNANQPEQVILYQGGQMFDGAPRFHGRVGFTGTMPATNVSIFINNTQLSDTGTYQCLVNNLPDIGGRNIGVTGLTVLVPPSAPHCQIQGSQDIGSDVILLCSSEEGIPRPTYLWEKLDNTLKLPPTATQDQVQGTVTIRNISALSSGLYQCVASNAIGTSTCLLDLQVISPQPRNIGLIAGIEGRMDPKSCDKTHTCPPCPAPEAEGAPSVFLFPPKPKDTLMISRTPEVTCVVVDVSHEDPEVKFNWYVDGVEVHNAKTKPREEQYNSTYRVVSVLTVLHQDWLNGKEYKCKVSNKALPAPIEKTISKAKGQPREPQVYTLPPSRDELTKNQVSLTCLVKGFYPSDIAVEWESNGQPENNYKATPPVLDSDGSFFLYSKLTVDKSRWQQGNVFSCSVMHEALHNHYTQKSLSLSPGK

VSIG3 His-fusion [2] = target: T2, VSIG3 His-fusion (human, UniProt Q5DX21 23-241, biotinylated (in the co-immunoprecipitation of FIG. 2)); experiment: SPR (Biacore), antibody captured on protein A/G/L, single-cycle kinetics
T2 chain: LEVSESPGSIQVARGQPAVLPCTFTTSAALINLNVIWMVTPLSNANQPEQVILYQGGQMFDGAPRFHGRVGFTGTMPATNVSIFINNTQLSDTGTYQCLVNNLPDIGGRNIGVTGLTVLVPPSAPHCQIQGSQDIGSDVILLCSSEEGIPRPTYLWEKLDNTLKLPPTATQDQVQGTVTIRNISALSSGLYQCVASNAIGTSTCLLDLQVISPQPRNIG

[3] = target: T1, Recombinant human VSIG3 Fc Chimera; experiment: SPR (Biacore), VSIG3-Fc immobilized, antibody as analyte, single-cycle kinetics
[4] = target: T1, Recombinant human VSIG3 Fc Chimera; experiment: SPR (Biacore, single-cycle kinetics)
VSIG3 His-fusion [5] = target: T2, VSIG3 His-fusion; experiment: SPR (Biacore), antibody captured on protein A/G/L, single-cycle kinetics
[6] = target: T1, Recombinant human VSIG3 Fc Chimera; experiment: SPR (Biacore, single-cycle kinetics)
[7] = target: T1, Recombinant human VSIG3 Fc Chimera; experiment: SPR (Biacore, single-cycle kinetics)

B1: mouse anti-human VSIG3 monoclonal antibody from clone #774213 (antibody, V domains shown)
VH: DVQLVESGGGLVQPGGSRKLSCAASGFTFSSFGMHWVRQAPEKGLEWVAYISSGSTTIYYADTVKGRFTISRDNPKNTLFLQMTSLRSEDTAMYYCTRGSYYRYDLYYAMDYWGQGTSVTVSS
VL: DIQMTQSPSSLSASLGGKVTITCKASQDIHKYVAWYQHKPGKGPRLLIHYTSTLQPGIPSRFSGSGSGSDYSFSISNLEPADIASYYCLQYDNLLFTFGGGTKLEIKR
Kd [1]: 9.2 nM
Kd (VSIG3 His-fusion [2]): 19 nM

B4: mouse anti-human VSIG3 monoclonal antibody from clone #774221 (antibody, V domains shown)
VH: DVQLQESGPGLVKPSQSLSLTCTVTGYSITSDYAWNWIRQFPGNKLEWMGYISYSGYAIYNPSLKSRISITRDTSKNHFFLQLNSVTTEDTATYYCARSGGSWFAYWGQGTLVTVSA
VL: DIQMTQSPASLSASVGETVTITCRASENINSYLAWYQQKQGKSPQLLVYNAKTLAEGVPSRFSGSGSGTQFSLKINSLQPEDFGSYYCQHHYGTPPTFGGGTKLEIKR
Kd [4]: 21 nM
Kd (VSIG3 His-fusion [5]): 25 nM

B5: mouse anti-human VSIG3 monoclonal antibody from clone #973422 (antibody, V domains shown)
VH: EVKLVESGGGLVQPGGSLKLSCAASGFTFSSYSMSWVRQTPEKRLEWVAYISNGGGSTYYPDTVKGRFTISRDNAKNTLYLQMSSLKSEDTAMYYCARHGDGYYPWFAYWGQGTLVTVSA
VL: QIVLSQSPAILSASPGEKVTMTCRASSSVSYIHWYQQKPGSSPKPWIYATSNLASGVPARFSGSGSGTSYSLTISRVEAEDAATYYCQQWSSNPFTFASGTKLEIKR
Kd [6]: 1.5 nM

Further lines, results first:

Kd [3]: 2.2 nM
B2: mouse anti-human VSIG3 monoclonal antibody from clone #973428 (antibody, V domains shown)
VH: EVQLVESGGDLVKPGGSLKLSCAASGFTFNSYGMSWVRQTPDKRLEWVAIISSGGSYTYYPDSVKGRFTISRDNAKNTLYLQMSSLKSEDTAMYYCARLSYYYGSSPYAMDYWGQGTSVTISS
VL: DIVLTQSPASLAVSLGQRATISCRASKSVSTSGYSYMHWYQQKPGQSPKLLIYLASNLESGVPARCSGSGSGTDFTLNIHPVEEEDAATYYCQHSRELPYTFGGGTKLEIKR

Kd [4]: 65 nM
Kd (VSIG3 His-fusion [5]): 42 nM
B3: mouse anti-human VSIG3 monoclonal antibody from clone #774226 (antibody, V domains shown)
VH: DVQLQESGPGLVKPSQSLSLICTVTGYSITSDYAWNWIRQFPGNKLEWMGYISYSGYTTYNPSLKSRISITRDTSKNQFFLQLNSVTTEDTATYYCAISGGSWFAYWGQGTLVTVSA
VL: DIQMTQSPASLSASVGETVNITCRTSENINSYLAWYQQKQGKSPQLLVYNAKTLAEGVPSRFSGSGSGTQFSLKINSLQPEDFGSYYCQHHYGTPPTFGGGTKLEIKR

Kd [7]: 2.2 nM
B6: mouse anti-human VSIG3 monoclonal antibody from clone #973401 (antibody, V domains shown)
VH: QVQLQQSAAELARPGASVKMSCKASGYTFATYTIHWVKQRPGQGLEWIGYINPSSGYTEYNQKFKDKTTLTADKSSSTAYMQLSSLTSEDSAVYYCARREVYGSGSMDYWGQGTSVTVSS
VL: QIVLTQSPALMSASPGEKVTMTCSASSSVSFMYWYHQKPRSSPKPWIYLTSNLASGVPARFSGSGSGTSYSLTISSMEAEDAATYYCQQWSSNPLTFGAGTKLELKR
